Blank lines part the entries; values can stand above or below the molecule they belong to.
Legend:
Format in all cases: cell-based
[1] = target: T1, LMO2-iDAb LMO2dm3 interaction (Homo sapiens, UniProt P25791); assay: BRET competition / dose-response assay on LMO2-iDAb LMO2dm3; details: HEK-293T, HEK293T, Fig. 4C
T1 construct: LMO2 cDNA was cloned into the pEF-RLuc8-MCS and pEF-MCS-RLuc8 plasmids; expressed in transfected cells; host or cells: HEK293T
T1 sequence (P25791 1-158): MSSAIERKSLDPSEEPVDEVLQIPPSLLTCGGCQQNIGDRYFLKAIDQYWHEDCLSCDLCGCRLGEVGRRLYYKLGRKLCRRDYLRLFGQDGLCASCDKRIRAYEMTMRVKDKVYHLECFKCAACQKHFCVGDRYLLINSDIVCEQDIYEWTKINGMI
Protocol: (§1) For all BRET experiments (titration curves and competition assays), 650,000 HEK293T were seeded in each well of six-well plates. After 24 hours at 37°C, cells were transfected with a total of 1.6 μg of DNA mix, containing the donor + acceptor ± competitor plasmids, using Lipofectamine 2000 transfection reagent (Thermo Fisher Scientific). For the BRET donor saturation assays, cells were transfected with 0.05 μg of donor (LMO2) and with an increased amount of acceptor plasmid (0.025, 0.05, 0.1, 0.25, 0.5, 0.75, and/or 1 μg of DNA) equalized to a total amount of 1.6 μg of DNA with an empty vector pEF-cyto-myc. […] Cells were detached 24 hours later, washed with phosphate-buffered saline (PBS), and seeded in a white 96-well plate (clear bottom, PerkinElmer, catalog no. 6005181) in Opti-MEM without phenol red medium complemented with 4% FBS, and cells were incubated for an additional 20 to 24 hours at 37°C before the BRET assay reading. […]
(§2) BRET2 signal was determined immediately after injection of coelenterazine 400a substrate (10 μM final concentration) to cells (Cayman Chemicals) using a CLARIOstar instrument (BMG Labtech) with a luminescence module. Total GFP^2 fluorescence was detected with excitation and emission peaks set at 405 and 515 nm, respectively. Total RLuc8 luminescence was measured with the luminescence 400- to 700-nm wavelength filter. […]

[2] = target: T2, LMO2-LDB1 interaction (Homo sapiens, UniProt P25791); assay: BRET assay on LMO2-LDB1; details: BRET competition, fig. S7E
T2 construct: LMO2 cDNA was cloned into the pEF-RLuc8-MCS and pEF-MCS-RLuc8 plasmids; expressed in transfected cells; host or cells: HEK293T
T2 sequence (P25791 1-158): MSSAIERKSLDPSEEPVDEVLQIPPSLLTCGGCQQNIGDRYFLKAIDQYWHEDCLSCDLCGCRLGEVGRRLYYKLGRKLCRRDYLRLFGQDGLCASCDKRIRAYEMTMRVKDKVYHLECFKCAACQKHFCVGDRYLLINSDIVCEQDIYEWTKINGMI
Protocol: as §1, §2

[3] = target: T3, LMO2-TAL1 + E47 interaction (Homo sapiens, UniProt P25791); assay: BRET assay on LMO2-TAL1 + E47; details: BRET competition, fig. S7D
T3 construct: LMO2 cDNA was cloned into the pEF-RLuc8-MCS and pEF-MCS-RLuc8 plasmids; expressed in transfected cells; host or cells: HEK293T
T3 sequence (P25791 1-158): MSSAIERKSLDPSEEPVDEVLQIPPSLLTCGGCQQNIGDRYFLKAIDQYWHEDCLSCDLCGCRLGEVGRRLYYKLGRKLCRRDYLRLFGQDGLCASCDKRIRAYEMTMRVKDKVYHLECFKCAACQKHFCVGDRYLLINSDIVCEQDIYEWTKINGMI
Protocol: as §1, §2

[4] = target: T4, LMO2 (Homo sapiens, UniProt P25791); assay: Single-dose BRET competition of LMO2-RLuc8 and GFP2-iDAb LMO2dmx by unmutated iDAb LMO2; details: lowest dose of competitor 0.1 μg, label = GFP2-iDAb acceptor, Fig. 2D
T4 construct: LMO2 cDNA was cloned into the pEF-RLuc8-MCS and pEF-MCS-RLuc8 plasmids; expressed in transfected cells; host or cells: HEK293T
T4 sequence (P25791 1-158): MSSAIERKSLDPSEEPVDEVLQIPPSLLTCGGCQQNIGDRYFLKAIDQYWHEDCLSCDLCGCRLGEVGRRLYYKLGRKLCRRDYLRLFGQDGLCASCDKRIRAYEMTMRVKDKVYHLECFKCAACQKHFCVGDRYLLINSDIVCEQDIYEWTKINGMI

inhibition at 20 µM [1]: 45%
Molecule: COc1ccc(CN2CCN(c3nc(C(=O)Nc4ccc(-n5cccc5)cc4)co3)CC2)cc1 [Abd-L19]

effect of coexpressed nontagged iDAb on LMO2-LDB1 BRET signal [2]: inhibited BRET signal
effect of coexpressed nontagged iDAb on LMO2-TAL1 + E47 BRET signal [3]: inhibited BRET signal
B1: iDAb LMO2: intracellular VH single domain antibody binding to LMO2 (antibody, V domains shown)
VH: EVQLLESGGGLVQPGGSLRLSCAASGFSFSHSPMNWVRQAPGKGLEWVSYISYNSSSIYYADSVKGRFTISRDNSKNTLYLQMNSLRAEDTAVYYCARGLTESLELTADWFDYWGQGTLVTVSS

percentage inhibition by iDAb LMO2 compared to iDAb Ctl of the interaction of the labelled acceptor iDAb with LMO2 [4]: ~ 90%
B2: iDAb LMO2dm3: iDAb LMO2 mutant S28G, H31G, S55A, E102A, T107A, chosen for the screen (antibody, V domains shown)
VH: EVQLLESGGGLVQPGGSLRLSCAASGFGFSGSPMNWVRQAPGKGLEWVSYISYNASSIYYADSVKGRFTISRDNSKNTLYLQMNSLRAEDTAVYYCARGLTASLELAADWFDYWGQGTLVTVSS

— article PMC8034850, “A cell-based screening method using an intracellular antibody for discovering small molecules targeting the translocation protein LMO2” (Science Advances, 2021)
